Results: the supplement of paper PMC10065799, “High-throughput profiling of sequence recognition by tyrosine kinases and SH2 domains using bacterial peptide display” (eLife, 2023)

Key:
SHP2-C SH2 = test: SH2 binding enrichment of the phosphorylated peptide, bacterial display (enrichment ratio); higher = better substrate or ligand; peptides without Tyr show the background
Grb2 SH2 = Grb2 SH2 (UniProt P62993); test: as above
c-Src SH2 = test: as above
MERTK = MERTK (UniProt Q12866); test: phosphorylation enrichment, bacterial display (enrichment ratio); higher = better substrate or ligand; peptides without Tyr show the background
c-Abl (mouse) = test: as above
c-Src = test: as above
FGFR1 = FGFR1 (UniProt P11362); test: as above
Chain of FGFR1 (P11362 whole entry, looked up): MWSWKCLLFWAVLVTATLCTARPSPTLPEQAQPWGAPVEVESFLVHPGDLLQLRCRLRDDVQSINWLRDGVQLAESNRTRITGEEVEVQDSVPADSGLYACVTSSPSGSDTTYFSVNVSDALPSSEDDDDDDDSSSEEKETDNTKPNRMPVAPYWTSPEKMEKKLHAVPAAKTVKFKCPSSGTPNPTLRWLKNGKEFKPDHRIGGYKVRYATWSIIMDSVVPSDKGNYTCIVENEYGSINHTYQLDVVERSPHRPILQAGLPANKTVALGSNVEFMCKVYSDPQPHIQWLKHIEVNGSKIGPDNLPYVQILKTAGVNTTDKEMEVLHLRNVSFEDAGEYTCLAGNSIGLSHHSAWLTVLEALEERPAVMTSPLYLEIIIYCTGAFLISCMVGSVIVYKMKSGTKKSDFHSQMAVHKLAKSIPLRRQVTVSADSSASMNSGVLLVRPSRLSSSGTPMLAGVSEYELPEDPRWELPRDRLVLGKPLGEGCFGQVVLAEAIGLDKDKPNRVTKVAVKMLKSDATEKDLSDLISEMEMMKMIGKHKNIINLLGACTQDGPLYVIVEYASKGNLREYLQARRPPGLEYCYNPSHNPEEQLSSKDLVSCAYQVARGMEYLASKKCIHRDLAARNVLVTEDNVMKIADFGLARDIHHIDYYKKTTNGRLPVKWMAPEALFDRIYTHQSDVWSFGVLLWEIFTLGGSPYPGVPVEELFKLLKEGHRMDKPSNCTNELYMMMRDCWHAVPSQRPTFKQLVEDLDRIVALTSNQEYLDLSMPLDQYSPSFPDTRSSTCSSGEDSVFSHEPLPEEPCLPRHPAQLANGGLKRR

Fyn = Fyn (UniProt P06241); test: as above
Chain of Fyn (P06241 whole entry, looked up): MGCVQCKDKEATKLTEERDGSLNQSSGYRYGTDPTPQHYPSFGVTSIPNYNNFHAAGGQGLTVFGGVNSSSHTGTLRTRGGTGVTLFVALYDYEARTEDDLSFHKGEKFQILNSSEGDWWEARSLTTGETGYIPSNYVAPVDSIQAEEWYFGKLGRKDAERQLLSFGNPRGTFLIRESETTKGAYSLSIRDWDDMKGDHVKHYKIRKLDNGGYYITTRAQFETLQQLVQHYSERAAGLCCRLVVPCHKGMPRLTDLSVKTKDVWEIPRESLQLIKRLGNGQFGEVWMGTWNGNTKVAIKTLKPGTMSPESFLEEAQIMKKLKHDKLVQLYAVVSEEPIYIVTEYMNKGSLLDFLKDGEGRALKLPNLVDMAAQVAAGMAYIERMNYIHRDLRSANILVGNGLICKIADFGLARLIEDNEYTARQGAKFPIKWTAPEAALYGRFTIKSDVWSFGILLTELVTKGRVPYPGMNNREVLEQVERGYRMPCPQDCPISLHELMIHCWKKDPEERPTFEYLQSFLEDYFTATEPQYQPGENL

Fes = Fes (UniProt P07332); test: as above
AncSZ = test: as above
Fer (mouse) = test: as above
Hck = Hck (UniProt P08631); test: as above
Chain of Hck (P08631 whole entry, looked up): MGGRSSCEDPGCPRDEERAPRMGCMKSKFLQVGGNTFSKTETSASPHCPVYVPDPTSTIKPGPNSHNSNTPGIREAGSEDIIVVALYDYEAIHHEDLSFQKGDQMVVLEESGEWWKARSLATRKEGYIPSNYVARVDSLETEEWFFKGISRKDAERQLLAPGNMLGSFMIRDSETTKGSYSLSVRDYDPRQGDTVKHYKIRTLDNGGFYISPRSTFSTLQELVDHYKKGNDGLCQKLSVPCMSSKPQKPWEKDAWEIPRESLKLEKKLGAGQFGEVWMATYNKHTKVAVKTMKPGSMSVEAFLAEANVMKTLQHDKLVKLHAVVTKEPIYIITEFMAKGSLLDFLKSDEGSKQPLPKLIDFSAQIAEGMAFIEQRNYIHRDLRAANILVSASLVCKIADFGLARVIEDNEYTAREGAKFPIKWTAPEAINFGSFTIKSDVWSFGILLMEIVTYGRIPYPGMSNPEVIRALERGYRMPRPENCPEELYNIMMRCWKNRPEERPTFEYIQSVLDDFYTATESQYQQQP

Jak2 = Jak2 (UniProt O60674); test: as above
Chain of Jak2 (O60674 whole entry, looked up): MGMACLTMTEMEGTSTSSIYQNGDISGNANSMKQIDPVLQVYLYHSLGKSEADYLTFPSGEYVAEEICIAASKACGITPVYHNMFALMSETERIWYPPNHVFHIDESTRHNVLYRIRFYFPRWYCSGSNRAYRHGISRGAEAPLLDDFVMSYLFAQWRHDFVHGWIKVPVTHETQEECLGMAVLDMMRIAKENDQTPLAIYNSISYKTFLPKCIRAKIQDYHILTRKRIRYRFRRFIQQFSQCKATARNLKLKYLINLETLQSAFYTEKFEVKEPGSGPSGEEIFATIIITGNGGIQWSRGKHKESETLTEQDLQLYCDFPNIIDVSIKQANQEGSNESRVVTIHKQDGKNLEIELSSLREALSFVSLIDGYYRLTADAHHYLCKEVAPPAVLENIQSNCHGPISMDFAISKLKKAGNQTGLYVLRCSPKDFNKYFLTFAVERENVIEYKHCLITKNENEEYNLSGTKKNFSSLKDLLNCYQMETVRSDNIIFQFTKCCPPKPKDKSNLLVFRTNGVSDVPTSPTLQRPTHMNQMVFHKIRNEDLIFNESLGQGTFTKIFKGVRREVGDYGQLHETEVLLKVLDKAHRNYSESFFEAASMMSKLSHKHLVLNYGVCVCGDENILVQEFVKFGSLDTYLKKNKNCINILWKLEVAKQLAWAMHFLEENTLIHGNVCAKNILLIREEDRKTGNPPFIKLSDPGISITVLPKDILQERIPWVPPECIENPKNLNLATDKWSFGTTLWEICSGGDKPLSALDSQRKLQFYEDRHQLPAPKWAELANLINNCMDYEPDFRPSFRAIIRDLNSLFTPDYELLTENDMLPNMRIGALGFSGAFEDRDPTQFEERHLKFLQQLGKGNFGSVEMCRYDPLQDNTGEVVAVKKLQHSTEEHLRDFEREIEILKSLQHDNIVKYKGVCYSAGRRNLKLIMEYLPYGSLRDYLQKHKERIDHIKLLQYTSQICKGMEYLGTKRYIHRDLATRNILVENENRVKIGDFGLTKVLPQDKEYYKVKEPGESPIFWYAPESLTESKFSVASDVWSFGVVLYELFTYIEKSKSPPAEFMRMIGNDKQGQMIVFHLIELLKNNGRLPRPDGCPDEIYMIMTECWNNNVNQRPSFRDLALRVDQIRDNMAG

EPHB2 = EPHB2 (UniProt P29323); test: as above
FGFR3 = FGFR3 (UniProt P22607); test: as above
Chain of FGFR3 (P22607 whole entry, looked up): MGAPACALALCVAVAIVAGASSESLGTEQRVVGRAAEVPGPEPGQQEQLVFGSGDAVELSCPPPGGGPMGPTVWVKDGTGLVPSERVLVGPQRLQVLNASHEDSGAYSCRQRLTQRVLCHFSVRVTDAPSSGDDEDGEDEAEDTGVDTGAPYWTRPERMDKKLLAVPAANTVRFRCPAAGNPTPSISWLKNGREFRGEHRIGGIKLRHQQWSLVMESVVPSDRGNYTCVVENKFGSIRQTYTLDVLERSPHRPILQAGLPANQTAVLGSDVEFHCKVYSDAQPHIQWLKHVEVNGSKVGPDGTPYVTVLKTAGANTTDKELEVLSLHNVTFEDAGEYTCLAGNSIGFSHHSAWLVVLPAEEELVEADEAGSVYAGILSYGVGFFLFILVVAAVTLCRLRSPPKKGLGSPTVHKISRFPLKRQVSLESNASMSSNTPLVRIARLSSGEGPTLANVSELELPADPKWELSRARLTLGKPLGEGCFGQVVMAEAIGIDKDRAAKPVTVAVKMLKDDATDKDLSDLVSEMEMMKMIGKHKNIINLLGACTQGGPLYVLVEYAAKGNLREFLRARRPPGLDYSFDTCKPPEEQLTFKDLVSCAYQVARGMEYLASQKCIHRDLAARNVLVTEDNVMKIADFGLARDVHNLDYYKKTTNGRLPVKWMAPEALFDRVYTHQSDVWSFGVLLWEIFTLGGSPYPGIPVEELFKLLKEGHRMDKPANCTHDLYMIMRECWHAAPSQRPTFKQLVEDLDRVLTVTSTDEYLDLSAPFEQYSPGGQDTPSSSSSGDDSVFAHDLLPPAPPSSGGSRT

EPHB1 = EPHB1 (UniProt P54762); test: as above
Chain of EPHB1 (P54762 whole entry, looked up, the tested form may be a part): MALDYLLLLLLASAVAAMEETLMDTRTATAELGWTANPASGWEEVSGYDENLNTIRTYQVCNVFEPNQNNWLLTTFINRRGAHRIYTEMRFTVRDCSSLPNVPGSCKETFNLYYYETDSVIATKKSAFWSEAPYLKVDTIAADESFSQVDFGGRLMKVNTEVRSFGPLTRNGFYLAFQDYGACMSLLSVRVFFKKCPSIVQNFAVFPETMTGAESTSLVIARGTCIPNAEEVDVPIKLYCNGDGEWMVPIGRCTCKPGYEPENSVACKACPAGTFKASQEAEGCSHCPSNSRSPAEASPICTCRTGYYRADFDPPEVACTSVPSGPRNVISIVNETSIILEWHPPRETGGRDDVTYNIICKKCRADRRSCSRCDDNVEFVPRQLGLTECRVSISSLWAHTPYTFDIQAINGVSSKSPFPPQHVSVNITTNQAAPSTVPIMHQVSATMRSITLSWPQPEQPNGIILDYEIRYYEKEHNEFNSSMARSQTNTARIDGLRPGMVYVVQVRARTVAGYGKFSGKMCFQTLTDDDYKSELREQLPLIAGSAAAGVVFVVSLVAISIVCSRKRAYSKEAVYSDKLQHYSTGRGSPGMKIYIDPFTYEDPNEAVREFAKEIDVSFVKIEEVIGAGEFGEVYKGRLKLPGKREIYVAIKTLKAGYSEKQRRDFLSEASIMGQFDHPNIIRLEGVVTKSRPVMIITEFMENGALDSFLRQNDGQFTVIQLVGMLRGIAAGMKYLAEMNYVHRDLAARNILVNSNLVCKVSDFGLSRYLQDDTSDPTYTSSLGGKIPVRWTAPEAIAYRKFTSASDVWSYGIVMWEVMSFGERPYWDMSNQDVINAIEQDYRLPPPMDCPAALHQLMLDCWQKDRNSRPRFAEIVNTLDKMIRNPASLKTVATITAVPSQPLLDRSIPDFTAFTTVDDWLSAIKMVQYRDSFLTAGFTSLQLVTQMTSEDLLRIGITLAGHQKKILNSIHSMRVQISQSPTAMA
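For SH2 binding enrichment of the phosphorylated peptide, bacterial display in this document: peptide library displayed on the E. coli surface as eCPX fusions, selected cells deep-sequenced, score is each peptide's frequency after selection divided by its frequency in the input.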
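For phosphorylation enrichment, bacterial display in this document: 11-residue human phosphosite peptides and single-mutation variants displayed on the E. coli surface, counted by deep sequencing, each peptide's frequency after selection divided by its frequency in the unselected input library; frequency after pTyr selection over input frequency; kinase dosed for 20-30% of maximal phosphorylation in three min.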

SH2 binding enrichment (SHP2-C SH2) | SH2 binding enrichment (Grb2 SH2) | SH2 binding enrichment (c-Src SH2) | Sequence | phosphorylation enrichment (MERTK) | phosphorylation enrichment (c-Abl (mouse)) | phosphorylation enrichment (c-Src) | phosphorylation enrichment (FGFR1) | phosphorylation enrichment (Fyn) | phosphorylation enrichment (Fes) | phosphorylation enrichment (AncSZ) | phosphorylation enrichment (Fer (mouse)) | phosphorylation enrichment (Hck) | phosphorylation enrichment (Jak2) | phosphorylation enrichment (EPHB2) | phosphorylation enrichment (FGFR3) | phosphorylation enrichment (EPHB1)
0.806 | 0.88 | 0.688 | RDSQIYAVDFE [MRPS34_Y34_L33I_YF] | 5.64 | 0.959 | 7.72 | 0.664 | 6.32 | 1.22 | 1.66 | 0.717 | 2.83 | 1.15 | 1.17 | 0.656 | 1.08
1.42 | 1.34 | 0.946 | AALVQYFMEHH [PTPN11_Y80_E76A_YF] | 0.401 | 0.665 | 0.441 | 0.573 | 0.439 | 1.05 | 0.798 | 0.476 | 0.519 | 0.772 | 0.541 | 0.727 | 0.623
0.733 | 1.02 | 1.05 | PVQAAYQKVEA [HBB_Y131_V135E] | 0.604 | 0.879 | 0.587 | 0.709 | 0.597 | 0.887 | 0.921 | 0.676 | 0.653 | 1.16 | 0.559 | 0.525 | 0.54
0.795 | 1.06 | 0.789 | LPPGEYVVVPS [CAPN1_Y494] | 0.927 | 1.31 | 0.641 | 2.83 | 0.88 | 1.45 | 1.7 | 0.778 | 0.67 | 1.32 | 3.72 | 1.93 | 5.23
1.96 | 2.1 | 1.73 | LLRFLYFFVCS [SLC34A2_Y109_G106R] | 0.744 | 0.697 | 0.587 | 0.72 | 0.519 | 1.59 | 0.948 | 0.573 | 0.704 | 1.69 | 0.585 | 1.22 | 0.606
0.741 | 0.793 | 0.452 | VDSIEYEVASQ [SLC7A7_Y7_T5I] | 0.545 | 0.821 | 0.466 | 0.451 | 0.491 | 1.18 | 1.22 | 0.464 | 0.567 | 1.36 | 0.618 | 0.729 | 0.594
0.726 | 0.943 | 0.581 | TLMNAYSSRCH [KIF11_Y231_S235C] | 0.448 | 0.738 | 0.471 | 0.492 | 0.571 | 0.836 | 1 | 0.535 | 0.496 | 0.776 | 0.553 | 0.637 | 0.602
2.07 | 0.934 | 0.66 | EEGRVYVYRLS [ITGAE_Y549] | 0.379 | 0.713 | 0.698 | 0.496 | 0.616 | 1.11 | 0.904 | 0.505 | 0.548 | 0.997 | 0.504 | 0.76 | 0.595
0.673 | 1.09 | 0.64 | ANVIRYFPTQA [SLC25A4_Y81] | 0.546 | 0.541 | 0.674 | 0.524 | 0.585 | 0.648 | 0.78 | 0.547 | 0.558 | 0.61 | 0.502 | 0.492 | 0.42
1.13 | 1.03 | 0.874 | AHLLQYNHRVK [LGALS3_Y221] | 0.42 | 0.668 | 0.459 | 0.397 | 0.288 | 0.604 | 0.592 | 0.371 | 0.366 | 0.562 | 0.493 | 0.442 | 0.461
1.06 | 1.05 | 0.589 | KVDKEYEVRVR [GHR_Y226] | 0.361 | 0.579 | 0.41 | 0.52 | 0.407 | 0.864 | 0.711 | 0.396 | 0.488 | 0.587 | 0.547 | 0.473 | 0.459
1.21 | 1.05 | 1.05 | TRSFKYLLLSM [NF1_Y491_YF] | 0.399 | 0.706 | 0.426 | 0.43 | 0.386 | 1.07 | 1.12 | 0.38 | 0.44 | 0.977 | 0.51 | 0.548 | 0.663
0.466 | 0.734 | 0.395 | HDKEFYSVHNK [MET_Y1235_Y1230H_YF] | 0.467 | 0.309 | 0.429 | 0.804 | 0.646 | 0.842 | 1.14 | 0.629 | 1.03 | 0.513 | 0.643 | 0.549 | 0.455
0.726 | 1.37 | 0.606 | KIPGRYFETGS [PAX2_Y72_L69P_YF] | 0.464 | 0.633 | 0.521 | 0.471 | 0.466 | 1.31 | 0.604 | 0.427 | 0.396 | 0.783 | 0.546 | 0.531 | 0.382
0.639 | 0.912 | 0.44 | ETMNKYDLSGR [MYEF2_Y164] | 0.633 | 0.507 | 0.398 | 0.421 | 0.434 | 0.696 | 0.667 | 0.422 | 0.448 | 0.731 | 0.391 | 0.498 | 0.383

Second part, the sequence before the results:

Sequence | SH2 binding enrichment (SHP2-C SH2) | SH2 binding enrichment (Grb2 SH2) | SH2 binding enrichment (c-Src SH2) | phosphorylation enrichment (MERTK) | phosphorylation enrichment (c-Abl (mouse)) | phosphorylation enrichment (c-Src) | phosphorylation enrichment (FGFR1) | phosphorylation enrichment (Fyn) | phosphorylation enrichment (Fes) | phosphorylation enrichment (AncSZ) | phosphorylation enrichment (Fer (mouse)) | phosphorylation enrichment (Hck) | phosphorylation enrichment (Jak2) | phosphorylation enrichment (EPHB2) | phosphorylation enrichment (FGFR3) | phosphorylation enrichment (EPHB1)
NAGDYYDLYGG [PTPN11_Y63_T59A] | 0.595 | 0.89 | 0.633 | 3.96 | 1.13 | 6.14 | 19.3 | 7.13 | 1.55 | 5.5 | 2.53 | 6.95 | 4.53 | 15.9 | 18.9 | 16.3
LNCDRYSVGLL [PDE6A_Y275] | 0.527 | 0.873 | 0.588 | 0.709 | 0.929 | 0.823 | 0.712 | 0.734 | 1.59 | 1.16 | 0.898 | 0.889 | 1.2 | 1.51 | 1.2 | 0.961
LVGTPYWMAPE [PAK5_Y608] | 1.58 | 0.76 | 0.673 | 0.856 | 0.694 | 2.71 | 2.09 | 0.683 | 1.15 | 0.91 | 0.573 | 0.459 | 1.14 | 0.437 | 1.84 | 0.775
ASKEPYYVRCI [MYO1D_Y585] | 0.391 | 0.702 | 0.481 | 0.618 | 1.19 | 0.595 | 0.686 | 0.521 | 1.17 | 1.35 | 0.557 | 0.464 | 1.21 | 0.802 | 0.813 | 0.877
VQEDIYDEFVE [ALDH2_Y332] | 0.408 | 0.752 | 0.437 | 0.542 | 0.859 | 1.87 | 0.459 | 1.89 | 1.3 | 1.2 | 0.658 | 1.15 | 1.34 | 0.715 | 0.731 | 0.728
VEDHYYEGGIG [TKT_Y564] | 0.833 | 0.883 | 3.89 | 0.524 | 0.837 | 0.628 | 1.59 | 0.559 | 1.11 | 1.1 | 0.688 | 0.636 | 1.05 | 0.65 | 1.73 | 0.581
ILGTYYETGSI [PAX2_Y73_R71T] | 0.559 | 0.998 | 1.4 | 3.6 | 1.16 | 4.01 | 9.71 | 4.14 | 1.04 | 0.971 | 0.645 | 2.99 | 1.28 | 2.19 | 8.15 | 2.54
YQSKHYACIRQ [TIMP3_Y182] | 6.64 | 1.21 | 2.08 | 0.534 | 0.648 | 0.406 | 0.52 | 0.418 | 0.762 | 0.673 | 0.554 | 0.55 | 0.626 | 0.451 | 0.45 | 0.462
TEALYYTDDPA [ADPRS_Y75_T79P] | 0.48 | 0.513 | 0.797 | 6.2 | 1.09 | 2.59 | 5.2 | 1.91 | 1.82 | 1.97 | 1.92 | 1.79 | 1.06 | 0.882 | 5.62 | 1.2
LWPIWYRCRRP [MRGPRX1_Y130_H133R] | 0.857 | 0.565 | 0.421 | 0.685 | 0.542 | 0.431 | 0.461 | 0.522 | 0.512 | 0.618 | 0.331 | 0.805 | 0.408 | 0.49 | 0.507 | 0.58
RMLRKYQELMS [KRT74_Y425_E424K] | 0.608 | 0.712 | 0.438 | 0.485 | 0.455 | 0.447 | 0.556 | 0.509 | 0.673 | 0.643 | 0.522 | 0.43 | 0.5 | 0.397 | 0.402 | 0.419
AVPSLYASGRT [ACTA1_Y145_L142P] | 0.643 | 0.818 | 0.415 | 0.473 | 0.538 | 0.451 | 0.405 | 0.393 | 0.57 | 0.65 | 0.451 | 1.74 | 0.523 | 0.433 | 0.434 | 0.452
QRAADYYSQQM [GBP6_Y333] | 0.608 | 0.887 | 0.56 | 0.813 | 0.591 | 0.524 | 2.32 | 1.42 | 1.53 | 1.29 | 0.579 | 0.611 | 0.728 | 1.14 | 1.75 | 0.933
SSMIDYNTLEK [MYOC_Y479_P481T] | 0.433 | 0.643 | 0.607 | 0.408 | 0.486 | 0.401 | 0.401 | 0.452 | 0.748 | 0.792 | 0.453 | 0.482 | 0.904 | 0.506 | 0.568 | 0.428
PELINYHQHNS [BTK_Y361] | 0.767 | 1 | 0.466 | 0.579 | 0.561 | 0.68 | 1.27 | 0.648 | 1.06 | 0.981 | 0.664 | 0.69 | 1 | 0.769 | 1.02 | 0.666
IPGRYYETGSI [PAX2_Y73_L69P] | 0.743 | 0.777 | 1.67 | 0.405 | 0.616 | 0.437 | 0.492 | 0.454 | 0.646 | 0.505 | 0.331 | 0.428 | 0.573 | 0.595 | 0.498 | 0.451
MARDIYRASFF [ALK_Y1278_YF] | 0.76 | 0.843 | 0.52 | 0.472 | 3.1 | 0.597 | 0.435 | 0.566 | 0.797 | 0.67 | 0.375 | 0.661 | 0.608 | 0.434 | 0.449 | 0.425
MEIHAYLKLLE [LMNA_Y376_R377L] | 0.714 | 0.842 | 0.732 | 0.48 | 1.24 | 0.569 | 0.517 | 0.521 | 1.8 | 1.33 | 0.587 | 0.574 | 1.62 | 0.708 | 0.959 | 0.859
